Measured values taken from patent US7947285B2, “Methods for preventing post endoscopic retrograde cholangiopancreatography pancreatitis” (priority 2003, dated 2011).
Where no end group is shown, it is not given here.

Assays:
Type in all cases: in vivo, human
patients undergoing ERCP [1] = assay: Adverse events
Experimental: (§1) This study evaluated the following safety variables: (1) Adverse events; (2) Vital signs; (3) Serum Amylase (when clinically indicated); and (4) Serum Lipase (when clinically indicated). No drug concentration measurements were assessed in this study.
(§2) Primary and secondary efficacy variables were compared between the treatment groups using the Fisher Exact Test or Cochran-Mantel Haenszel Association Test. Adverse events and vital signs (heart rate, blood pressure) were compared between the treatment groups using the t-test. The clinical assumption on which the power calculation is based was on incidence of post-ERCP pancreatitis among all patients without pancreas divisum of 6%. In order to show a 50% reduction in the rate of post-ERCP pancreatitis with a significance of p=0.05, at a power of 80%, 749 evaluable patients per treatment group (sPS vs. placebo) were needed.

patients undergoing ERCP [2] = assay: Pain, nausea and vomiting scores pre and post ERCP (0-10 scale)
Experimental: (§3) Incidence of post-ERCP pancreatitis (sPS vs. placebo) was evaluated as the primary efficacy variable in this study. Secondary efficacy variables included incidences of post-ERCP pancreatitis in the following sub-populations: (1) cannulation of CBD; (2) sphincterotomy of CBD; (3) cannulation of pancreatic duct; (4) sphincterotomy of pancreatic duct; (5) stent insertion and removal into CBD; (6) stent insertion and removal into pancreatic duct; (7) stone extraction (basket) from CBD; (8) stone extraction (balloon) from CBD; (9) manometry of CBD; (10) manometry of pancreatic duct; (11) pain scores pre and post ERCP (0-10 scale); (12) nausea scores pre and post ERCP (0-10 scale); (13) vomiting scores pre and post ERCP (0-10 scale); (14) return to baseline activity (pre-ERCP); and (15) return to work.
as §2
Additional secondary efficacy analyses were performed on post-ERCP pain, nausea, and vomiting using a 0 to 10 digital scale. There were no significant differences between the treatment groups for baseline (pre procedure) pain, nausea and vomiting. There were also no significant differences in these variables post-ERCP although there was a slight numerical trend indicating less nausea for sPS ([…]).

patients undergoing ERCP [3] = assay: Return to baseline (pre-ERCP) activity and return to work
Experimental: as §3
Additional secondary efficacy variables assessed were return to baseline (pre-ERCP levels of activity) and the time in days to return of pre-ERCP activity levels. There was a small difference in the percentage of patients reporting return to baseline activity within the follow-up period (2 to 4 days post-ERCP) favoring the placebo group (p=0.0230) (49.78% vs. 42.09%). Interims of the mean number of days required to achieve pre-ERCP activity levels, was 0.6 (±1.0) for the sPS group and 0.7 (±0.9) for the placebo group. An attempt was made to obtain information on return to work. Relatively few data points were able to be collected, however, because a large percentage of patients were not working pre-ERCP (retired, too ill, etc.) among the 185 patients (95 in the sPS group and 90 in the placebo group) providing relevant responses for this variable, 46.32% of sPS patients and 50.00% of placebo patients reported returning to work within the follow-up period.

patients undergoing ERCP [4] = assay: Vital signs (systolic and diastolic BP, pulse) pre and post ERCP
Experimental: as §1, §2
Systolic and Diastolic blood pressure and pulse were measured for all patients' pre and post-ERCP procedure.

For “synthetic porcine secretin (HSDGTFTSELSRLRDSARLQRLLQGLV-NH2; ends and bridges not checked; UniProt P63298 33-59, looked up) [SPS, synthetic form of porcine secretin, a 27 amino acid gastrointestinal peptide hormone]”, the “Patients with AE related to study drug (%)” value (patients undergoing ERCP [1]; N = 488) was 0.2%, the “Patients with AE related to study drug: number” value (patients undergoing ERCP [1]; N = 488) was 1 and the “Patients with serious AE (%)” value (patients undergoing ERCP [1]; N = 488) was 0 (0) %. For the same substance, the “Patients with serious AE: number” value (patients undergoing ERCP [1]; N = 488) was 0 (0), the “Patients with severe AE (%)” value (patients undergoing ERCP [1]; N = 488) was 0.2% and the “Patients with severe AE: number” value (patients undergoing ERCP [1]; N = 488) was 1. For the same substance, the “Patients with unknown severity to AE (%)” value (patients undergoing ERCP [1]; N = 488) was 0.2%, the “Patients with unknown severity to AE: number” value (patients undergoing ERCP [1]; N = 488) was 1 and the “Total No. of AEs related to study drug” value (patients undergoing ERCP [1]; N = 488) was 1. The “Total No. of AEs related to study drug (%)” value (patients undergoing ERCP [1]; N = 488) was 0.2%, the “Total No. of serious Aes” value (patients undergoing ERCP [1]; N = 488) was 0 (0) and the “Total No. of serious Aes (%)” value (patients undergoing ERCP [1]; N = 488) was 0 (0) %. The “Total No. of severe Aes” value (patients undergoing ERCP [1]; N = 488) was 2, the “Total No. of severe Aes (%)” value (patients undergoing ERCP [1]; N = 488) was 0.4% and the “Total No. of unknown severity to AE” value (patients undergoing ERCP [1]; N = 488) was 1. For the same substance, the “Total No. of unknown severity to AE (%)” value (patients undergoing ERCP [1]; N = 488) was 0.2%, the “Total No. of Aes” value (patients undergoing ERCP [1]; N = 488, p 0.0006) was 25 and the “Total No. of Aes (%)” value (patients undergoing ERCP [1]; N = 488, p 0.0006) was 5.1%. The “Total No. of mild/moderate Aes” value (patients undergoing ERCP [1]; N = 488, p 0.0039) was 21, the “Total No. of mild/moderate Aes (%)” value (patients undergoing ERCP [1]; N = 488, p 0.0039) was 4.3% and the “Patients with any AE (%)” value (patients undergoing ERCP [1]; N = 488, p 0.0052) was 4.1%. The “Patients with any AE: number” value (patients undergoing ERCP [1]; N = 488, p 0.0052) was 20, the “Patients with mild/moderate AE (%)” value (patients undergoing ERCP [1]; N = 488, p 0.0208) was 3.5% and the “Patients with mild/moderate AE: number” value (patients undergoing ERCP [1]; N = 488, p 0.0208) was 17. For the same substance, the “AE judged by the investigator to be related to study drug” value (patients undergoing ERCP [1]; patient #16, mild AE of an hour duration) was “drop in blood pressure”, the “overall safety and tolerability” value (patients undergoing ERCP [1]; patients undergoing ERCP, 16 mcg IV) was “safe and well tolerated” and the “Nausea post-ERCP, Mean (SD)” value (patients undergoing ERCP [2]; N = 485) was 0.9 (2.1) (N = 485). For the same substance, the “Pain Post-ERCP, Mean (SD)” value (patients undergoing ERCP [2]; N = 485) was 1.8 (3.0) (N = 485), the “Vomiting post-ERCP, Mean (SD)” value (patients undergoing ERCP [2]; N = 485) was 0.6 (1.9) (N = 485) and the “Vomiting pre-ERCP, Mean (SD)” value (patients undergoing ERCP [2]; baseline, N = 482) was 0.1 (0.8) (N = 482). For the same substance, the “Nausea Pre-ERCP, Mean (SD)” value (patients undergoing ERCP [2]; baseline, N = 483) was 0.6 (1.7) (N = 483), the “Pain Pre-ERCP, Mean (SD)” value (patients undergoing ERCP [2]; baseline, N = 483) was 1.4 (0.6) (N = 483) and the “Change in Vomiting, Mean (SD)” value (patients undergoing ERCP [2]; pre to post ERCP, N = 479, p 0.0776) was 0.5 (2.0) (N = 479). For the same substance, the “Change in Nausea, Mean (SD)” value (patients undergoing ERCP [2]; pre to post ERCP, N = 480, p 0.0284) was 0.3 (2.5) (N = 480), the “Change in Pain, Mean (SD)” value (patients undergoing ERCP [2]; pre to post ERCP, N = 480, p 0.0668) was 0.4 (3.4) (N = 480) and the “mean number of days required to achieve pre-ERCP activity levels” value (patients undergoing ERCP [3]; in vivo) was 0.6 (±1.0) days. The “percentage of patients reporting return to baseline activity” value (patients undergoing ERCP [3]; within the follow-up period (2 to 4 days post-ERCP), p=0.0230 favoring placebo) was 42.09%, the “patients reported returning to work” value (patients undergoing ERCP [3]; within the follow-up period, 95 patients in the sPS group, not significant) was 46.32% and the “Diastolic BP post-ERCP, Mean (SD)” value (patients undergoing ERCP [4]; N = 381) was 68.7 (13.4) (N = 381) mm/Hg. For the same substance, the “Pulse post-ERCP, Mean (SD)” value (patients undergoing ERCP [4]; N = 381) was 91.0 (20.4) (N = 381), the “Systolic BP post-ERCP, Mean (SD)” value (patients undergoing ERCP [4]; N = 381) was 131.0 (23.9) (N = 381) mm/Hg and the “Diastolic BP pre-ERCP, Mean (SD)” value (patients undergoing ERCP [4]; baseline, N = 397) was 74.6 (12.8) (N = 397) mm/Hg. The “Pulse pre-ERCP, Mean (SD)” value (patients undergoing ERCP [4]; baseline, N = 397) was 81.0 (15.7) (N = 397), the “Systolic BP pre-ERCP, Mean (SD)” value (patients undergoing ERCP [4]; baseline, N = 397) was 142.3 (24.9) (N = 397) mm/Hg and the “Change in Systolic BP, Mean (SD)” value (patients undergoing ERCP [4]; pre to post ERCP, N = 378, p 0.0007) was −11.4 (29.2) (N = 378) mm/Hg. The “Change in Diastolic BP, Mean (SD)” value (patients undergoing ERCP [4]; pre to post ERCP, N = 378, p 0.1163) was −6.0 (15.3) (N = 378) mm/Hg and the “Change in Pulse, Mean (SD)” value (patients undergoing ERCP [4]; pre to post ERCP, N = 378, p 0.1324) was 9.7 (17.7) (N = 378).
